Results reported in US20210380679A1 (INHIBRX BIOSCIENCES, published 2021).

T1: human DLL3 (Delta-like ligand 3) (human, UniProt Q9NYJ7 27-618)
T1 construct: endogenous on SHP-77 cells; also called cell-surface DLL3
T1 sequence: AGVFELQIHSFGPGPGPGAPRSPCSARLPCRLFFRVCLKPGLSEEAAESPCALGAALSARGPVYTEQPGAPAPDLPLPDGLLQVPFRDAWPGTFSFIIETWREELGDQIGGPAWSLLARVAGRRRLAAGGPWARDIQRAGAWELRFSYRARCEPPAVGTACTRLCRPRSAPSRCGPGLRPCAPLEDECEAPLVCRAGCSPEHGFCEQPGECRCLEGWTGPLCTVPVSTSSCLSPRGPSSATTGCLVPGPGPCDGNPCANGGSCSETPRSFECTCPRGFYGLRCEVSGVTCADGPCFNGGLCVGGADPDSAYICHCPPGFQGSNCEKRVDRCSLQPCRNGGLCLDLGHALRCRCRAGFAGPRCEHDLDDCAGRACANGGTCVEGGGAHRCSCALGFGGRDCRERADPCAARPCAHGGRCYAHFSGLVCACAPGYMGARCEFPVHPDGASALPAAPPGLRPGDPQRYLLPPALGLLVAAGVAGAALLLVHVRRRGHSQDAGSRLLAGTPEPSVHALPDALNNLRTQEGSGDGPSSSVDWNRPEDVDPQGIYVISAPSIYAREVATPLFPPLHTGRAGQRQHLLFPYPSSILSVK

B1: cx4888 (bispecific antibody)
chain 1: EVQLVESGGGEVQPGGSLRLSCAASGSIFSINAMGWYRQAPGKQRELVAGFTGDTNTIYAESVKGRFTISRDNAKNTVYLQMSSLRAEDTAVYYCAADVQLFSRDYEFYWGQGTLVTVKPDKTHTCPPCPAPGGPSVFLFPPKPKDTLMISRTPEVTCVVVDVSHEDPEVKFNWYVDGVEVHNAKTKPREEQYNSTYRVVSVLTVLHQDWLNGKEYKCKVSNKALPAPIEKTISKAKGQPREPQVYTLPPCRDELTKNQVSLWCLVKGFYPSDIAVEWESNGQPENNYKTTPPVLDSDGSFFLYSKLTVDKSRWQQGNVFSCSVMHEALHNHYTQKSLSLSPTGGGGGSGGGGGSGGGGGSEVQLVESGGGLVQPGGSLRLSCAASGFTFNTYAMNWVRQAPGKCLEWVARIRSKYNNYATYYADSVKGRFTISRDDAKNTLYLQMSSLRAEDTAVYYCVRHGNFGNSYVSWFAYWGQGTLVTVKPEVQLVESGGGEVQPGGSLRLSCAASEIITSDKSVGWWRQAPGKQRNLVAGISNVGSTNYAQSVKGRFTISRDNAKNTLFLQMSSLRAEDTAVYYCYARDFENEYWGQGTLVTVKP
chain 2: DKTHTCPPCPAPGGPSVFLFPPKPKDTLMISRTPEVTCVVVDVSHEDPEVKFNWYVDGVEVHNAKTKPREEQYNSTYRVVSVLTVLHQDWLNGKEYKCKVSNKALPAPIEKTISKAKGQPREPQVCTLPPSRDELTKNQVSLSCAVKGFYPSDIAVEWESNGQPENNYKTTPPVLDSDGSFFLVSKLTVDKSRWQQGNVFSCSVMHEALHNRYTQKSLSLSPTGGGGGSGGGGGSGGGGGSQAVVTQEPSLTVSPGGTVTLTCGSSTGAVTTSNYANWVQQKPGQAFRGLIGGTNKRAPGVPARFSGSLLGGKAALTISGAQPEDEADYYCALWYSNHWVFGCGTKLEIKEVQLLESGGGEVQPGGSLRLSCAASGFSFSINAMGWYRQAPGKRREFVAAIESGRNTVYAESVKGRFTISRDNAKNTVYLQMSSLRAEDTAVYYCGLLKGNRVVSPSVAYWGQGTLVTVKP
notes: also carries a 41BB sdAb
B2: cx4720 (bispecific antibody)
chain 1: EVQLVQSGGGLVQAGGSLRLSCAASGSILSINAMGWYRQPPGKQREMVAGFTGDGNTIYADSVKGRFTISRDNAKNTVYLQMNSLKPEDTAVYYCAADVQLFSRDYEFYWGQGTQVTVKPDKTHTCPPCPAPGGPSVFLFPPKPKDTLMISRTPEVTCVVVDVSHEDPEVKFNWYVDGVEVHNAKTKPREEQYNSTYRVVSVLTVLHQDWLNGKEYKCKVSNKALPAPIEKTISKAKGQPREPQVYTLPPCRDELTKNQVSLWCLVKGFYPSDIAVEWESNGQPENNYKTTPPVLDSDGSFFLYSKLTVDKSRWQQGNVFSCSVMHEALHNHYTQKSLSLSPTGGGGGSGGGGGSGGGGGSEVQLVESGGGLVQPGGSLRLSCAASGFTFNTYAMNWVRQAPGKCLEWVARIRSKYNNYATYYADSVKGRFTISRDDAKNTLYLQMSSLRAEDTAVYYCVRHGNFGNSYVSWFAYWGQGTLVTVKPEVQLQESGGGLVQAGGSLRLSCGPSEIITSDKSVGWWRQAPGKQRNLVAGISNVGSTNYAQSVKGRFTISRDNAKNTLFLQMNSLKPEDTAVYYCYARDFENEYWGRGTQVTVKP
chain 2: B1 chain 2
notes: also carries a 41BB sdAb
B3: cx4895 (bispecific antibody)
chain 1: B2 chain 1
chain 2: B1 chain 2
notes: as printed the same parts as cx4720
B4: cx4890 (bispecific antibody)
chain 1: B2 chain 1
chain 2: DKTHTCPPCPAPGGPSVFLFPPKPKDTLMISRTPEVTCVVVDVSHEDPEVKFNWYVDGVEVHNAKTKPREEQYNSTYRVVSVLTVLHQDWLNGKEYKCKVSNKALPAPIEKTISKAKGQPREPQVCTLPPSRDELTKNQVSLSCAVKGFYPSDIAVEWESNGQPENNYKTTPPVLDSDGSFFLVSKLTVDKSRWQQGNVFSCSVMHEALHNRYTQKSLSLSPTGGGGGSGGGGGSGGGGGSQAVVTQEPSLTVSPGGTVTLTCGSSTGAVTTSNYANWVQQKPGQAFRGLIGGTNKRAPGVPARFSGSLLGGKAALTISGAQPEDEADYYCALWYSNHWVFGCGTKLEIK
B5: cx4899 (bispecific antibody)
chain 1: EVQLVESGGGEVQPGGSLRLSCGPSEIITSDKSVGWWRQAPGKQRNLVAGISNVGSTNYAQSVKGRFTISRDNAKNTLYLQMSSLRAEDTAVYYCYARDFENEYWGQGTLVTVKPDKTHTCPPCPAPGGPSVFLFPPKPKDTLMISRTPEVTCVVVDVSHEDPEVKFNWYVDGVEVHNAKTKPREEQYNSTYRVVSVLTVLHQDWLNGKEYKCKVSNKALPAPIEKTISKAKGQPREPQVYTLPPCRDELTKNQVSLWCLVKGFYPSDIAVEWESNGQPENNYKTTPPVLDSDGSFFLYSKLTVDKSRWQQGNVFSCSVMHEALHNHYTQKSLSLSPTGGGGGSGGGGGSGGGGGSEVQLVESGGGLVQPGGSLRLSCAASGFTFNTYAMNWVRQAPGKCLEWVARIRSKYNNYATYYADSVKGRFTISRDDAKNTLYLQMSSLRAEDTAVYYCVRHGNFGNSYVSWFAYWGQGTLVTVKPEVQLVESGGGEVQPGGSLRLSCAASGSIFSINAMGWYRQAPGKQRELVAGFTGDTNTIYAESVKGRFTISRDNAKNTVYLQMSSLRAEDTAVYYCAADVQLFSRDYEFYWGQGTLVTVKP
chain 2: B4 chain 2

Target: T1, human DLL3 (Delta-like ligand 3)
Test: flow cytometry, SHP-77 cells
Protocol: (§1) Binding of exemplary DLL3-targeting constrained CD3 engaging constructs of the disclosure, referred to herein as cx4720, cx3715, cx4422, cx3708, cx4052, cx3985, cx4059, cx4087, cx4088, cx4895, cx3991, cx3711, cx4887, cx4896, cx4899, cx4406, cx3707, cx3710, cx4888 and cx4890, to CD3 on the surface of primary T cells was assessed via flow cytometry (SONY SA3800 spectral analyzer) using T-cell that were negatively enriched from PBMCs isolated from healthy human donor leukopaks. Representative DLL3-targeting constrained CD3 engaging constructs were assessed for binding to T cells and DLL3 expressing cells (SHP-77). Bound cx4720, cx3715, cx4422, cx3708, cx4052, cx3985, cx4059, cx4087, cx4088, cx4895, cx3991, cx3711, cx4887, cx4896, cx4899, cx4406, cx3707, cx3710, cx4888 and cx4890 was detected with fluorophore-conjugated secondary antibodies specific for the human Fc and binding was measured by flow cytometry. Cells incubated with secondary antibody only served as negative controls.
(§2) Table E4 summarizes the affinity of exemplary molecules for DLL3 or CD3, as determined from flow cytometry, in these studies.

| Kd [nM] | Binder |
| --- | --- |
| 0.134 | B1 |
| 0.115 | B2 |
| 0.065 | B3 |
| 0.062 | B4 |
| 0.397 | B5 |

Target: T2, CD3 on the surface of T cells (human, UniProt P07766 23-207)
T2 construct: whole, on cells; multi-chain complex; also called CD3 epsilon
T2 sequence (P07766 23-207): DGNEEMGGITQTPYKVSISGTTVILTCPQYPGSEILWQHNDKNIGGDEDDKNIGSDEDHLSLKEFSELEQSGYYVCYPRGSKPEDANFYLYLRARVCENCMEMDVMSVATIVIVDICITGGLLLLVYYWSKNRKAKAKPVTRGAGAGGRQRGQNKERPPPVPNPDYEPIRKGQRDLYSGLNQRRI
Test: flow cytometry, primary human T cells
Protocol: as §1, §2

| Kd [nM] | Binder |
| --- | --- |
| > 200 | B1 |
| > 200 | B2 |
| > 200 | B3 |
| > 200 | B4 |
| > 200 | B5 |
